The text below walks through data of paper PMC4512722.

Experiment [1] deals with tomato pectin methylesterase PME1 (tomato) (UniProt P14280). Nature of the experiment: SPR; tomato PME1 immobilised by amine coupling on a COOH5 chip (SensiQ Pioneer), VvPMEI1 injected at 2.3-300 nM, 25°C, 10 mM NaOAc pH 5.5, 0.1 M NaCl, 0.005% Tween-20; 1:1 interaction model. For orientation: In SPR one partner is held on a chip, and binding of the other changes the refractive index at the surface.

Experiment [2] has the same target. Nature of the experiment: SPR; tomato PME1 immobilised by amine coupling on a COOH5 chip (SensiQ Pioneer), VvPMEI1 injected at 2.3-300 nM, 25°C, 10 mM HEPES pH 7.5, 0.1 M NaCl, 0.005% Tween-20; 1:1 interaction model.
Experiment [3] has the same target.

UniProt P14280, sequence (P14280 230-546): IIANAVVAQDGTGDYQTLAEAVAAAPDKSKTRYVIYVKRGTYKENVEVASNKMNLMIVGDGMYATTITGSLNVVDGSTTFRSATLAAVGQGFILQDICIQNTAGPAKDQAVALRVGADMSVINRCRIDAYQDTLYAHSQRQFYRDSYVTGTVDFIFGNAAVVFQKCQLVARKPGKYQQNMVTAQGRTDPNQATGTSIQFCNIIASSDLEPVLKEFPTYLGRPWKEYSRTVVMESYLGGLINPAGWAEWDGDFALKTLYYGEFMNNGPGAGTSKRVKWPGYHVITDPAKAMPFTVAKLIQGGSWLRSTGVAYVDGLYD

For the substance “VvPMEI1, pectin methylesterase inhibitor of Vitis vinifera (recombinant) (natural protein)”, in experiment [1], the Kd (usually the equilibrium constant for the complex coming apart) turned out to be 4.77 nM and the dissociation rate constant (koff) – broadly, the first-order rate constant of dissociation – amounted to 0.00317 s⁻¹. Also, in experiment [2], the Kd came to 35 nM and the koff worked out at 0.026 s⁻¹. In experiment [3], this substance registered an inhibitory activity (%) at pH 6.5, inhibition at pH 5.5 taken as 100% of 100% and an inhibitory activity (%) at pH 7.5, inhibition at pH 5.5 taken as 100% of 84%.
